Assay [1] deals with T1, chimeric human/cynomolgus monkey CD89-hotspots (human/cynomolgus monkey chimera, UniProt P24071 22-287).
T1 construct: also called ΔThr58, Gln59; ΔArg73, Arg74, Lys76
T1 chain: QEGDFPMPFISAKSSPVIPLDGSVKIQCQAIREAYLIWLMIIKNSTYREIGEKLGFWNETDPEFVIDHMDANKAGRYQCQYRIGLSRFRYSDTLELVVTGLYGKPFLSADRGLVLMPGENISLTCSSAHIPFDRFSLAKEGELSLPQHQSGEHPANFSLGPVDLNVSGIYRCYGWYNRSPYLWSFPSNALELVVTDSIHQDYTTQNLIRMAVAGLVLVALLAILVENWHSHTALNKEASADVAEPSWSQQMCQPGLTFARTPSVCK
The assay can be described thus: FACS, transiently transfected HEK293F; - = no binding.
Description: (§1) After 48 hours, the binding of CD89/IgA blocking mouse anti-human CD89 antibodies to aforementioned chimeric human CD89/cynomolgus monkey CD89 constructs on transfected cells was analyzed by FACS analysis. To this end, transient transfected HEK293F cells were put at 10×10⁶ cells/mL in ice-chilled phosphate-buffered saline containing 0.1% BSA (Sigma)/0.05% NaN₃ (PBS/BSA/NaN₃) supplemented with 50 μg/mL human IgGs (blocking Fcγ receptors; Sigma) for 10 minutes at 4° C. Then, 10 μL/tube (ie, 0.1×10⁶ cells) of these cells were incubated with or without 100 μL purified mouse anti-human CD89 antibody at 10 μg/mL (in PBS/BSA/NaN₃) for 30 minutes at 4° C. […] After extensive washing in PBS/BSA/NaN₃, cells were subsequently incubated with 1:200 diluted PE-conjugated goat anti-mouse IgG Fey-specific antibodies (Jackson ImmunoResearch) for 30 minutes at 4° C. After extensive washing in PBS/BSA/NaN₃, cells were fixed in 2% formaldehyde in PBS/BSA/NaN₃ for 30 minutes at 4° C.

Assay [2] has as its target T2, chimeric human EC1-CD89/bovine EC2-Fcγ2R (human TM & human IC) (human/bovine chimera).
T2 construct: also called human EC1-CD89 (version with human transmembrane-intracellular region)
Nature of the assay: FACS, transiently transfected HEK293F, 10 ug/mL. (Flow cytometry measures light scatter and fluorescence of single cells or particles in a stream.)
Description: (§2) After 48 hours and/or 72 hours, the binding of CD89/IgA blocking mouse anti-human CD89 antibodies to aforementioned chimeric human/bovine receptors on transfected cells was analyzed by FACS analysis. To this end, transient transfected HEK293F cells were put at 10×10⁶ cells/mL in ice-chilled phosphate-buffered saline containing 0.1% BSA (Sigma)/0.05% NaN₃ (PBS/BSA/NaN₃) supplemented with 50 μg/mL human IgGs (blocking Fcγ receptors; Sigma) for 10 minutes at 4° C. Then, 10 μL/tube (ie, 0.1×10⁶ cells) of these cells were incubated with or without 100 μL purified mouse anti-human CD89 antibody at 10 μg/mL (in PBS/BSA/NaN₃) for 30 minutes at 4° C. […] After extensive washing in PBS/BSA/NaN₃, cells were subsequently incubated with 1:200 diluted PE-conjugated goat anti-mouse IgG Fey-specific antibodies (Jackson ImmunoResearch) for 30 minutes at 4° C. After extensive washing in PBS/BSA/NaN₃, cells were fixed in 2% formaldehyde in PBS/BSA/NaN₃ for 30 minutes at 4° C.

Assay [3] addresses T3, chimeric human EC1-CD89/bovine EC2-Fcγ2R (bovine TM & bovine IC) (human/bovine chimera).
T3 construct: also called human EC1-CD89 (version with bovine transmembrane-intracellular region)
Nature of the assay: FACS, transiently transfected HEK293F, 10 ug/mL.
Description: as §2

Assay [4] concerns the target T4, membrane full-length bovine Fcγ2R (bovine).
T4 chain: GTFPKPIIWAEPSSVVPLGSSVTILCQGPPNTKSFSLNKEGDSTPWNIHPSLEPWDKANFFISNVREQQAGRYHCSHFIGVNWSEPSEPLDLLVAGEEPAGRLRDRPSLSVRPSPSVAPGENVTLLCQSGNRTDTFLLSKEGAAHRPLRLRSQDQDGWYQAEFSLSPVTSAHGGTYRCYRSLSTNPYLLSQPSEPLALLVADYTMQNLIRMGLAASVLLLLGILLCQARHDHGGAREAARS
Nature of the assay: FACS, transiently transfected HEK293F.
Description: as §2

The target in assay [5] is T5, membrane-bound full-length human CD89 (human, UniProt P24071 22-287).
T5 construct: on stably or transiently transfected HEK293F cells; also called FcalphaRI; huCD89
The assay can be described thus: FACS, HEK293F-huCD89, unlabeled Ab 10 ug/mL first; competitor A3-PE.
Description: Then, 10 μL/tube (ie, 0.1×10⁶ cells) of these cells were incubated with or without 100 μL purified mouse anti-human CD89 antibody at 10 μg/mL (in PBS/BSA/NaN₃) for 30 minutes at 4° C. […] After extensive washing in PBS/BSA/NaN₃, cells were fixed in 2% formaldehyde in PBS/BSA/NaN₃ for 30 minutes at 4° C.

The target in assay [6] is T6, chimeric human/cynomolgus monkey CD89-II (human/cynomolgus monkey chimera, UniProt P24071 22-287).
T6 construct: also called ΔIle47-Ile71 human EC1-CD89; II (47-71)
T6 chain: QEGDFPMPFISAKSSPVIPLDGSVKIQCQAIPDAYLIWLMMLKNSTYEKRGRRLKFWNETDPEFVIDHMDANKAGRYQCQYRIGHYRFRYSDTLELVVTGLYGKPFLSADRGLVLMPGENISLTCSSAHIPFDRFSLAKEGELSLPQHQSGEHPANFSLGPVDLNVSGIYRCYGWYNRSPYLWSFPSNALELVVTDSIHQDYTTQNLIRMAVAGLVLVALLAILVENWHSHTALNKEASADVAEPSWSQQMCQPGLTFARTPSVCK
The assay can be described thus: FACS, transiently transfected HEK293F, 10 ug/mL; ++ strong, + intermediate, -/+ weak.
Description: as §1

The target in assay [7] is T7, chimeric human/cynomolgus monkey CD89-III (human/cynomolgus monkey chimera, UniProt P24071 22-287).
T7 construct: also called ΔGly72-Gly96 human EC1-CD89; III (72-96)
T7 chain: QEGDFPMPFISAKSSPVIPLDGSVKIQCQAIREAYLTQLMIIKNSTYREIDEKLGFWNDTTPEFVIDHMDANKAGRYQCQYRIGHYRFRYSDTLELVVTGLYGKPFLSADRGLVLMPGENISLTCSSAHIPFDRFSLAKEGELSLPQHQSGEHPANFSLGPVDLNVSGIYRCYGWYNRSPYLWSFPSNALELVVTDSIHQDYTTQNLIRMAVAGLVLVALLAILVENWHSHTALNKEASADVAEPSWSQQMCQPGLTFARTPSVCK
Nature of the assay: FACS, transiently transfected HEK293F; - = no binding.
Description: as §1

For assay [8], the target named is T6, chimeric human/cynomolgus monkey CD89-II. Described as above.
Description: as §1
For assay [9], the target named is T5, membrane-bound full-length human CD89. The assay can be described thus: FACS, HEK293F-huCD89, 4C +NaN3, IgA then Ab 10 ug/mL; pre-bound non-aggr serum IgA.
Description: After this (ie, without washing), 50 μL purified mouse anti-human CD89 antibody at 20 μg/mL (in PBS/BSA/NaN₃) was added to these cells, and incubated for another 30 minutes at 4° C. […] After extensive washing in PBS/BSA/NaN₃, 1:200 diluted PE-conjugated streptavidin (Jackson ImmunoResearch) was added, and incubated for 30 minutes at 4° C. After extensive washing in PBS/BSA/NaN₃, cells were fixed in 2% formaldehyde in PBS/BSA/NaN₃ for 30 minutes at 4° C.
The target of assay [10] is T7, chimeric human/cynomolgus monkey …. The assay can be described thus: FACS, transiently transfected HEK293F, 10 ug/mL; ++ strong, + intermediate, -/+ weak.
Description: as §1
Assay [11] deals with T1, chimeric human/cynomolgus monkey …. The description is as above.
Description: as §1
Assay [12] has as its target T5, membrane-bound full-length human CD89. The assay can be described thus: FACS, HEK293F-huCD89, 4C +NaN3, IgA then Ab 10 ug/mL; pre-bound heat-aggr serum IgA.
Description: After extensive washing in PBS/BSA/NaN₃, 1:200 diluted PE-conjugated streptavidin (Jackson ImmunoResearch) was added, and incubated for 30 minutes at 4° C. After extensive washing in PBS/BSA/NaN₃, cells were fixed in 2% formaldehyde in PBS/BSA/NaN₃ for 30 minutes at 4° C.

B1: mouse anti-human CD89-specific antibody 10E7 (antibody, mouse IgG1, V domains shown)
VH: EVQLVESGGGLVQPGGSLKLSCAASGLTFSSYGMSWVRQTPDKRLELVATINGNGDITYYPDSVKGRFTISRDNAKNTLYLQMSSLKSEDTAMYYCARDYDYDYAMDYWGQGTSVTVSS
VL: DIQMTQSTSSLSASLGDSVTISCRASQDIINYLNWYQQKPDGTVKLLIYYTSRLHSGVPSRFSGSGSGTEYSLTVSNLEKEDIATYFCQQGKTLPYTFGGGTKLEIK
For B1, the binding result in [1] is “no binding (tested: 10 µg/mL)”; in assay [2], “binds”; in assay [3], “binds”; in assay [4], “no binding (tested: 10 µg/mL)”; in assay [6] it was “binds”. In addition, the “% blocking of A3-PE binding” value in [5] is under 25%.

B2: mouse anti-human CD89-specific antibody 8F3 (antibody, mouse IgG1, V domains shown)
VH: EVQLVESGGGLVKPGGSLKLSCAASGFTFSNYGMSWVRQTPDKRLEWVATMHSGGTYTYYPDNVKGRFTISRDNAKNNLYLQMSSLRSEDTAMYYCARETGLYDGLFDFWGQGTTLTVSS
VL: DVQITQSPSYLAASPGETITINCRASKTISKYLAWYQEKPGKTNMLLIYSGSTLQSGVPSRFSGSGSGTDFTLTISSLEPEDLAMYYCQQHDEYPWTFGGGTKLEIK
B2: the values for the binding result in assay [7], in assay [1] and in assay [6] were “no binding (tested: 10 µg/mL)”, “no binding (tested: 10 µg/mL)” and “binds”, respectively. Also, in assay [5], the “% blocking of A3-PE binding” value is under 25%.

B3: mouse anti-human CD89-specific antibody 20B4 (antibody, mouse IgG1, V domains shown)
VH: QVQLKESGPGLVAPSQSLSITCTVSGFSLTSYGVHWVRQPPGKGLEWLGIIWAGGSTSYNSALMSRLSISKDNSKSQVFLKMNSLQTDDTAMYYCARDHYDLFAYWGQGTLVTVSA
VL: DILMTQSPSSMSVSLGDTVSITCHASQDISRNIGWLQQKPGKSFKGLIYHGTNLEDGVPSRFSGSGSGADYSLTISSLESEDFADYYCVQYAQFPRTFGGGTKLEIK
B3: the binding result in assay [8] is reported as “no binding (tested: 10 µg/mL)”; in assay [10] it was “binds”; in [11] it was “binds”. The “percent IgA binding” value in [9] is 0 to 25%; in assay [12], 26 to 50%.

(Values after patent US20210388084A1 (JJP BIOLOGICS SP Z O O, published 2021).)
